T1: DFNB31_2, Q9P202
T1 sequence (Q9P202 274-371, limits assumed, looked up): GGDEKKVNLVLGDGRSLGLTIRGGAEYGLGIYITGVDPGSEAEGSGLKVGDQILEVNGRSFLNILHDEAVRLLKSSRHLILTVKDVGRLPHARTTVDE

T2: DLG3_3, Q92796
T2 sequence (Q92796 374-475, limits assumed, looked up): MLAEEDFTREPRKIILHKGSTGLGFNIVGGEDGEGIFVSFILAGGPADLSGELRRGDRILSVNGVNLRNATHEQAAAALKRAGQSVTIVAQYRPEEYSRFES

T3: GRIP1_5, Q9Y3R0
T3 sequence (Q9Y3R0 568-668, limits assumed, looked up): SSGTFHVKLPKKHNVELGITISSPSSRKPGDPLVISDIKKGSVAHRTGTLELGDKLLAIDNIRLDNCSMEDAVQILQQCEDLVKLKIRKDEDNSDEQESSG

T4: LNX2_2, Q8N448
T4 sequence (Q8N448 334-432, limits assumed, looked up): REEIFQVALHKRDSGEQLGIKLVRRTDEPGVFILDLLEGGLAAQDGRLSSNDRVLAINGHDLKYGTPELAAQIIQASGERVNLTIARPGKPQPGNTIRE

T5: MPP2, Q14168
T5 sequence (Q14168 180-250, limits assumed, looked up): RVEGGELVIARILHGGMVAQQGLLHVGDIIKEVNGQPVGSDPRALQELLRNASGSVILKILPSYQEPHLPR

T6: NHERF3_1, Q5T2W1
T6 sequence (Q5T2W1 4-100, limits assumed, looked up): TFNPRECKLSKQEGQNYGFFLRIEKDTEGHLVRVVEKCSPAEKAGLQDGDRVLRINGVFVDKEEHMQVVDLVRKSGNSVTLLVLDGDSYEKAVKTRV

T7: NHERF3_3, Q5T2W1
T7 sequence (Q5T2W1 238-333, limits assumed, looked up): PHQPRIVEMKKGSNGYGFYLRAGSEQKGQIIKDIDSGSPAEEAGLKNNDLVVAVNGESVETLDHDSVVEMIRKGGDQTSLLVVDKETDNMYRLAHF

T8: PCLO, Q9Y6V0
T8 sequence (Q9Y6V0 4491-4600, limits assumed, looked up): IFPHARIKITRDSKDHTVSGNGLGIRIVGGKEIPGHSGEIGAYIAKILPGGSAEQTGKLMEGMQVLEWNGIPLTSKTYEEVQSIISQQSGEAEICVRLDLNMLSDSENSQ

T9: SHANK1, Q9Y566
T9 sequence (Q9Y566 658-767, limits assumed, looked up): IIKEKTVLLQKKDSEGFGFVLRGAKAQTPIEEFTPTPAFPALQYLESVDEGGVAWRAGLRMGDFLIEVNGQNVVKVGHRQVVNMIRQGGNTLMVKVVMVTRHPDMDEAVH

T10: TIAM2, Q8IVF5
T10 sequence (Q8IVF5 885-986, limits assumed, looked up): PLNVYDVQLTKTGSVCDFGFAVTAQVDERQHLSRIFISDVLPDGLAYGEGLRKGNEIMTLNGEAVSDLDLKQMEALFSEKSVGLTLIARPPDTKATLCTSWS

T11: TJP3_3, O95049
T11 sequence (O95049 375-456, limits assumed, looked up): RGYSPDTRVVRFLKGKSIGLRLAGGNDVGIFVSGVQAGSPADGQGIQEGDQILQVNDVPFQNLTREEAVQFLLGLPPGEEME


Assays:
Experiment in all cases: holdup assay
Design in all cases: key: below the threshold = too weak to quantify, mostly under pKd 3.1 to 4
Settings in all cases: plain residues with an end cap or a label only (N-terminal biotin on a linker: ado-ado)
DFNB31_2, Q9P202 = molecular target: T1, DFNB31_2, Q9P202
DLG1_3, Q12959 = molecular target: DLG1_3, Q12959
DLG3_3, Q92796 = molecular target: T2, DLG3_3, Q92796
DLG4_1, P78352 = molecular target: DLG4_1, P78352
DLG4_3, P78352 = molecular target: DLG4_3, P78352
FRMPD2_2, Q68DX3 = molecular target: FRMPD2_2, Q68DX3
GORASP1, Q9BQQ3 = molecular target: GORASP1, Q9BQQ3
GRID2IP_1, A4D2P6 = molecular target: GRID2IP_1, A4D2P6
GRIP1_5, Q9Y3R0 = molecular target: T3, GRIP1_5, Q9Y3R0
IL16_1, Q14005 = molecular target: IL16_1, Q14005
Inadl_6, Q8NI35 = molecular target: Inadl_6, Q8NI35
Inadl_8, Q8NI35 = molecular target: Inadl_8, Q8NI35
LNX2_2, Q8N448 = molecular target: T4, LNX2_2, Q8N448
MAGI2_2, Q86UL8 = molecular target: MAGI2_2, Q86UL8
MAGI2_6, Q86UL8 = molecular target: MAGI2_6, Q86UL8
MPP2, Q14168 = molecular target: T5, MPP2, Q14168
NHERF3_1, Q5T2W1 = molecular target: T6, NHERF3_1, Q5T2W1
NHERF3_3, Q5T2W1 = molecular target: T7, NHERF3_3, Q5T2W1
NHERF4_1, Q86UT5-2 = molecular target: NHERF4_1, Q86UT5-2
NOS1, P29475 = molecular target: NOS1, P29475
PCLO, Q9Y6V0 = molecular target: T8, PCLO, Q9Y6V0
PICK1, Q9NRD5 = molecular target: PICK1, Q9NRD5
PTPN3, P26045 = molecular target: PTPN3, P26045
SHANK1, Q9Y566 = molecular target: T9, SHANK1, Q9Y566
TIAM2, Q8IVF5 = molecular target: T10, TIAM2, Q8IVF5
TJP1_3, Q07157 = molecular target: TJP1_3, Q07157
TJP3_3, O95049 = molecular target: T11, TJP3_3, O95049

Chain of MAGI2_6, Q86UL8 (Q86UL8 1141-1229): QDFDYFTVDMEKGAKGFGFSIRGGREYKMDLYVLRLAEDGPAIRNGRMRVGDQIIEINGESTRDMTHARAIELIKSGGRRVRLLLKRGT
Chain of DLG1_3, Q12959 (Q12959 457-571): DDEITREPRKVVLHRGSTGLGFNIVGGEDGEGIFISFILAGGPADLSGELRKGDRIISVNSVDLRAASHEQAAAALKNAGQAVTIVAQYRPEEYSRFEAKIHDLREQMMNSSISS
Chain of FRMPD2_2, Q68DX3 (Q68DX3 944-1038): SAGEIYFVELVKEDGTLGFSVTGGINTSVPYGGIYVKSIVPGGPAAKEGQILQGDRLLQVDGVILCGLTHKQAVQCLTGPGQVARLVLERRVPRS
Chain of MAGI2_2, Q86UL8 (Q86UL8 410-522): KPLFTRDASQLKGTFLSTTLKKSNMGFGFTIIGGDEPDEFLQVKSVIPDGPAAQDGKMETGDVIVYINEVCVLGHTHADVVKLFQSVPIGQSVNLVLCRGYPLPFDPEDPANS
Chain of NOS1, P29475 (P29475 9-101): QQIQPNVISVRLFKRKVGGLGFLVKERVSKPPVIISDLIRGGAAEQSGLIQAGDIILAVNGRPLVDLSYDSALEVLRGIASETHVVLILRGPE
Chain of PICK1, Q9NRD5 (Q9NRD5 17-115): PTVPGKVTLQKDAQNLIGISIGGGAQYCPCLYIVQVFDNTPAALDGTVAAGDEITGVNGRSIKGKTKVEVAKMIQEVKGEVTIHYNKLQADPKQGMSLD
Chain of PTPN3, P26045 (P26045 505-587): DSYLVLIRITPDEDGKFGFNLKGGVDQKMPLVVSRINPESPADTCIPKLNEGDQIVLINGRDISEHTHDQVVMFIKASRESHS
Chain of Inadl_6, Q8NI35 (Q8NI35 1058-1167): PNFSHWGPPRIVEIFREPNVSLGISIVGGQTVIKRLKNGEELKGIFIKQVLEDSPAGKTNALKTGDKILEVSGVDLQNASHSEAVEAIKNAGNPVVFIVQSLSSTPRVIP
Chain of IL16_1, Q14005 (Q14005 210-306): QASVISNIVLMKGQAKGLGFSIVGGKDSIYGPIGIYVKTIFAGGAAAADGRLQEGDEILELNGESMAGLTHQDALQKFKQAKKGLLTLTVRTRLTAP
Chain of DLG4_3, P78352 (P78352 306-403): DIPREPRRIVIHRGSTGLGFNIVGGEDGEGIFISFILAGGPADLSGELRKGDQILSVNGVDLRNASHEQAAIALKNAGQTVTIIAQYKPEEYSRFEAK
Chain of NHERF4_1, Q86UT5-2 (Q86UT5 other isoform, or with tags, fused parts or gaps): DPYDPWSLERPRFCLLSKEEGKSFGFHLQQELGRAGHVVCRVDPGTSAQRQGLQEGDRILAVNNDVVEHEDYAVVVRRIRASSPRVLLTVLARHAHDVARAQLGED
Chain of DLG4_1, P78352 (P78352 62-152): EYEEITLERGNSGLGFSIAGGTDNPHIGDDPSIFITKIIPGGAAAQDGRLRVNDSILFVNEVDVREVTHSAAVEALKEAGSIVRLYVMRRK
Chain of GRID2IP_1, A4D2P6 (A4D2P6 1-87): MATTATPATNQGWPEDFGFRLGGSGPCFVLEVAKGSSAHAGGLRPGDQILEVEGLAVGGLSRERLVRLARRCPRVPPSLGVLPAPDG
Chain of TJP1_3, Q07157 (Q07157 416-512): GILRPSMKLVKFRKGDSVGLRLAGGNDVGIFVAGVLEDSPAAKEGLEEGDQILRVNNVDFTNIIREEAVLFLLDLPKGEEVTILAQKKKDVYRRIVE
Chain of Inadl_8, Q8NI35 (Q8NI35 1425-1530): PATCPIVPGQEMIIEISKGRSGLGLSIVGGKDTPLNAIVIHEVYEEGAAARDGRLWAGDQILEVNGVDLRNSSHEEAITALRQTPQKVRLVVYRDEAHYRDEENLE
Chain of GORASP1, Q9BQQ3 (Q9BQQ3 1-208): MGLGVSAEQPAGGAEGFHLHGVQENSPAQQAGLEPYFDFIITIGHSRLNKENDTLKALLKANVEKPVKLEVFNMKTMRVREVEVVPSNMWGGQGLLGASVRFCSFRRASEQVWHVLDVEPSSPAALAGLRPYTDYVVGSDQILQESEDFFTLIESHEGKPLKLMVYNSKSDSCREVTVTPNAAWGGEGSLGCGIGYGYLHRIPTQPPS

Binder | pKd (DFNB31_2, Q9P202) | pKd (DLG1_3, Q12959) | pKd (DLG3_3, Q92796) | pKd (DLG4_1, P78352) | pKd (DLG4_3, P78352) | pKd (FRMPD2_2, Q68DX3) | pKd (GORASP1, Q9BQQ3) | pKd (GRID2IP_1, A4D2P6) | pKd (GRIP1_5, Q9Y3R0) | pKd (IL16_1, Q14005) | pKd (Inadl_6, Q8NI35) | pKd (Inadl_8, Q8NI35) | pKd (LNX2_2, Q8N448) | pKd (MAGI2_2, Q86UL8) | pKd (MAGI2_6, Q86UL8) | pKd (MPP2, Q14168) | pKd (NHERF3_1, Q5T2W1) | pKd (NHERF3_3, Q5T2W1) | pKd (NHERF4_1, Q86UT5-2) | pKd (NOS1, P29475) | also measured
QSPANIYYKV [EFNB1, P52799] | below the threshold | below the threshold | below the threshold | below the threshold | below the threshold | below the threshold | 4.85 | below the threshold | below the threshold | below the threshold | below the threshold | below the threshold | 4.25 | below the threshold | below the threshold | below the threshold | below the threshold | below the threshold | below the threshold | below the threshold | pKd (PCLO, Q9Y6V0): below the threshold; pKd (PICK1, Q9NRD5): below the threshold; pKd (PTPN3, P26045): below the threshold; pKd (SHANK1, Q9Y566): below the threshold; pKd (TIAM2, Q8IVF5): 4.1; pKd (TJP1_3, Q07157): below the threshold; pKd (TJP3_3, O95049): below the threshold
QSARLWETSI [ADAM22, Q9P0K1] | 3.57 | 4.66 | 4.29 | 3.92 | 4.23 | 3.97 | below the threshold | below the threshold | below the threshold | 3.68 | 4.06 | 3.81 | below the threshold | 3.72 | 4.22 | below the threshold | 4.88 | below the threshold | below the threshold | below the threshold | pKd (PCLO, Q9Y6V0): below the threshold; pKd (PICK1, Q9NRD5): 3.91; pKd (PTPN3, P26045): 4.83; pKd (SHANK1, Q9Y566): 3.72; pKd (TIAM2, Q8IVF5): 3.97; pKd (TJP1_3, Q07157): below the threshold; pKd (TJP3_3, O95049): below the threshold

Second part, led by results:

pKd (DFNB31_2, Q9P202) | pKd (DLG1_3, Q12959) | pKd (DLG3_3, Q92796) | pKd (DLG4_1, P78352) | pKd (DLG4_3, P78352) | pKd (FRMPD2_2, Q68DX3) | pKd (GORASP1, Q9BQQ3) | pKd (GRID2IP_1, A4D2P6) | pKd (GRIP1_5, Q9Y3R0) | pKd (IL16_1, Q14005) | pKd (Inadl_6, Q8NI35) | pKd (Inadl_8, Q8NI35) | pKd (LNX2_2, Q8N448) | pKd (MAGI2_2, Q86UL8) | pKd (MAGI2_6, Q86UL8) | pKd (MPP2, Q14168) | pKd (NHERF3_1, Q5T2W1) | pKd (NHERF3_3, Q5T2W1) | pKd (NHERF4_1, Q86UT5-2) | pKd (NOS1, P29475) | Binder | also measured
below the threshold | below the threshold | below the threshold | below the threshold | below the threshold | below the threshold | below the threshold | below the threshold | below the threshold | below the threshold | below the threshold | 3.77 | below the threshold | 3.82 | below the threshold | below the threshold | below the threshold | below the threshold | below the threshold | below the threshold | TLPRKRMSSI [GPRC6A, Q5T6X5] | pKd (PCLO, Q9Y6V0): below the threshold; pKd (PICK1, Q9NRD5): 4.13; pKd (PTPN3, P26045): 4.11; pKd (SHANK1, Q9Y566): below the threshold; pKd (TIAM2, Q8IVF5): 4.07; pKd (TJP1_3, Q07157): below the threshold; pKd (TJP3_3, O95049): below the threshold
below the threshold | below the threshold | below the threshold | 3.49 | below the threshold | below the threshold | below the threshold | below the threshold | below the threshold | below the threshold | below the threshold | below the threshold | below the threshold | 4.02 | below the threshold | below the threshold | below the threshold | below the threshold | 3.91 | 4.38 | TSSMRGMDAV [RSRC2, Q7L4I2] | pKd (PCLO, Q9Y6V0): below the threshold; pKd (PICK1, Q9NRD5): below the threshold; pKd (PTPN3, P26045): 3.67; pKd (SHANK1, Q9Y566): below the threshold; pKd (TIAM2, Q8IVF5): below the threshold; pKd (TJP1_3, Q07157): below the threshold; pKd (TJP3_3, O95049): below the threshold
below the threshold | 3.6 | below the threshold | below the threshold | below the threshold | below the threshold | below the threshold | below the threshold | below the threshold | below the threshold | below the threshold | 4.06 | below the threshold | below the threshold | below the threshold | below the threshold | 3.94 | below the threshold | 4.35 | below the threshold | SAAKVLTSMC [GHRHR, Q02643] | pKd (PCLO, Q9Y6V0): below the threshold; pKd (PICK1, Q9NRD5): below the threshold; pKd (PTPN3, P26045): 3.71; pKd (SHANK1, Q9Y566): 3.89; pKd (TIAM2, Q8IVF5): below the threshold; pKd (TJP1_3, Q07157): below the threshold; pKd (TJP3_3, O95049): below the threshold
